Consider two molecules from patent publication US20260218204, “APTAMERS SPECIFIC FOR TLR-4 AND USES THEREOF” (Merck Patent GmbH, published 2026).

This data set deals with TLR-4 extracellular domain (Homo sapiens, UniProt O00206 O00206:24-631). The data set is described as follows: ELONA; 200 nM aptamer, 20 mM Tris pH 7.4, 1 mM MgCl2, 150 mM NaCl, 5 mM KCl, 37 C; among the most efficient binders. Particulars: tags: C-terminal 6xHis, expressed in baculovirus; label: 5' digoxigenin (ELONA); predicted G4. On the procedure:
It was determined if the selected aptamers recognized the TLR-4 protein. To that end, 100 ng/well of 6×HIS-recombinant TLR-4 were added to a 96-well microtiter plate and were incubated at 4° C. for 16 h. Subsequently, individual aptamers labeled with digoxigenin in the 5′ end were diluted at a concentration of 5 μg/mL and then denatured for 10 min at 95° C. and cooled for 10 min on ice. Then, 20 pmol of each of the aptamers in 100 μl (200 nM) of aptamer buffer were added to each well and the plate was incubated for 1 h at 37° C. Finally, the plate was incubated with peroxidase-conjugated anti-digoxigenin antibodies and developed using ABTS. An anti-Li H2A DNA aptamer was used as a positive control (Martin et al., 2013, PLoS ONE 8: e78886).
By means of the same type of assay, aptamers TLRApt#2F and TLRApt#3R were identified.

Chain of TLR-4 extracellular domain (O00206 24-631, one chain of several): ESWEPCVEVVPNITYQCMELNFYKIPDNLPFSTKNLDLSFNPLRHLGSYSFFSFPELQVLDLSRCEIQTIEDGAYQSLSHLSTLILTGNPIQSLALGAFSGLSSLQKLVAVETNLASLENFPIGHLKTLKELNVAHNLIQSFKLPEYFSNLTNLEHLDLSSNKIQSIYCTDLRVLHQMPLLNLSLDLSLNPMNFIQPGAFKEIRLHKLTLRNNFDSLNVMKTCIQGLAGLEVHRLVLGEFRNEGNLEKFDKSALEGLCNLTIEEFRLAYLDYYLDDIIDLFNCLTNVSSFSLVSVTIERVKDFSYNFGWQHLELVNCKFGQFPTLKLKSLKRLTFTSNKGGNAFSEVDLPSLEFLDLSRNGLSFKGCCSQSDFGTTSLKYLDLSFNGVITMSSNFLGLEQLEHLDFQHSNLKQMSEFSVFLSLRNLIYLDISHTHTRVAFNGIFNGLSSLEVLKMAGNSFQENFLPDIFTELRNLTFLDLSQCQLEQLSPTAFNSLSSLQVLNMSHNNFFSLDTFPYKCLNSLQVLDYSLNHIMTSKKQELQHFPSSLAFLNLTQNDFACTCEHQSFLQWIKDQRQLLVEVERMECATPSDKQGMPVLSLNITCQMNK

B1: TLRApt#4F (ssDNA)
DNA: GCGGATGAAGACTGGTGTGCCAATAAACCATATCGCCGCGTTAGCATGTACTCGGTTGGCCCTAAATACGAGCAAC
In the case of B1, the binding result was “binds”.

B2: TLRApt#1R (ssDNA)
DNA: GTTGCTCGTATTTAGGGCCACCGGCACGGGACAAGGCGCGGGACGGCGTAGATCAGGTCGACACCAGTCTTCATCCGC
In the case of B2, the binding result was “binds”.
